Laboratory results reported in patent publication US20170035908A1.
pEC50: −log10 of the molar value.

Columns and labels:
[1] = target: PAM4 antigen (pancreatic cancer mucin, CaPan1 human pancreatic tumor); test: ELISA on target mucin antigen (FIG. 9)
[2] = target: PAM4 antigen (pancreatic cancer mucin, CaPan1 human pancreatic tumor); test: TF10/111In-IMP-288 complex mixed with excess mucin, elution analysis
[3] = target: PAM4 antigen (pancreatic cancer mucin, CaPan1 human pancreatic tumor); test: radioiodinated TF10 mixed with mucin (not shown)
[4] = target: IMP-288 di-HSG hapten-peptide, DOTA-D-Tyr-D-Lys(HSG)-D-Glu-D-Lys(HSG)-NH2; test: 111In-IMP-288 mixed with TF10, elution analysis (not shown)

| pEC50 [1] | percent of TF10-bound IMP-288 eluting at higher molecular weight with excess mucin [2] [%] | immunoreactive fraction [3] [%] | percent of peptide bound [4] [%] | Substance |
| --- | --- | --- | --- | --- |
| 8.74 |  |  |  | PAM4-F(ab′)2 |
| 8.85 | 92 | 87 | 90 | TF10 bispecific ([hPAM4]2 x h679) DNL construct (bispecific antibody) |
